Key:
Thermostability = type: physicochemical
mouse IL-22 = biological target: T1, mouse IL-22 (Mus musculus, UniProt Q9JJY9); experiment: SPR capture assay, affinity to mouse IL-22; type: binding; conditions: mouse IL-22, SPR
T1 sequence (Q9JJY9 34-179): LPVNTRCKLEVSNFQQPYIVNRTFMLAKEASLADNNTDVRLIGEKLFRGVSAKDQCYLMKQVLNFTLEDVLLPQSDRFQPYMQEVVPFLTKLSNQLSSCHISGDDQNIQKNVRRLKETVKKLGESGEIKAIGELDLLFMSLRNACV
Description: (§1) The affinity of the 10 antibodies of Table 1 was measured by Surface Plasma Resonance (SPR) using a capture assay in PBS buffer to generate binding curves at four different concentrations of each antibody (0.05, 0.1, 0.5, and 1.0 μg/ml). The Ka, Kd and KD values for the mutant antibodies were calculated from the curves for each of the antibodies.
(§2) The affinity of the 10 antibodies of Table 1 was measured by Surface Plasma Resonance (SPR) using a capture assay on a SPR-2 instrument (SierraSensiors, Hamburg, Germany). The antigens hIL-22 and mIL-22 were immobilized on chips. The running buffer for the assay contained 10 mM HEPES with a pH of 7.4, 500 mM NaCl, and 0.05% TWEEN® 20. […] The off-rate was measured for 6 minutes. Binding constants were calculated using the curve fitting software Analyzer2 (Sierra Sensors). Sensorgrams were analyzed with the instrument specific software and with BIAevaluation 4.1 software. The binding data were analyzed using the Langmuir 1:1 model (human IL-22) or a model for a heterogeneous ligand ([…]).
(§3) The antibodies were tested at four different concentrations of each antibody: 0.33 nM, 0.67 nM, 3.3 nM, 6.7 nM for hIL-22; 1, 2, […] for mIL-22. Antibody CPE-LC-E049K was used as a control.

[1] = Pharmacokinetics in NOD SCID mice, plasma concentration by solid phase ELISA; type: in vivo, mouse; conditions: after a 10 mg/kg IV injection
Description: The pharmacokinetics of the mutant antibodies of Table 1 were analyzed in mice. The antibodies were injected into mice by IV injection at two doses 0.3 mg/kg and 10 mg/kg. The concentrations of the injected antibodies in the blood plasma were measured by solid phase ELISA.
Two anti-IL-22 antibodies CPS02 and CPS09 were tested in NOD SCID mice. The antibodies were injected via IV at two dosages: 0.3 mg/kg and 10 mg/kg. Three mice were used for each dose group. Blood samples were retrieved from the mice at 10 min, 1 h, 3 h 7 h, 24 h, 48 h, 96 h, 168 h, 240 h and 336 h after the IV injection. The concentrations of the injected antibodies in the blood samples were measured by solid phase ELISA.

human IL-22 = biological target: T2, human IL-22 (Homo sapiens, UniProt Q9GZX6); experiment: SPR capture assay, affinity to human IL-22; type: binding; conditions: human IL-22, SPR
T2 sequence (Q9GZX6 34-179): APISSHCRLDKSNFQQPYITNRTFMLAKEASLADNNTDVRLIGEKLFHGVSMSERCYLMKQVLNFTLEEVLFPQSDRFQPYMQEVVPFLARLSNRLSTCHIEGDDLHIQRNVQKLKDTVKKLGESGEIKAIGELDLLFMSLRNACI
Description: as §1, §2, §3

B1: CPS02: mutant anti-IL-22 antibody binding human and mouse IL-22; light chain LC-06, heavy chain HC-08 (antibody, V domains shown)
VH: QVQLVQSGAEVKKPGASVKVSCKASGYIFRSYWIHWIRQPPGKGLEWIGRIYPGTGRTYYNEKFKGRVTISADKSISTAYLQWSSLKASDTAMYYCARSYDSSVAYWGQGTLVTVSS
VL: AIQLTQSPSSLSASVGDRVTITCSASSSVSYMHWYLQKPGQSPQLLIYKTRKLASGVPSRFSGSGSGTDFTFTISSLEAEDAATYYCQQWSSNPYITFGQGTKVEIKR
Question: For B1, which “Thermostability (% remaining activity 60 min); of duplicate samples” value (Thermostability) is on record?
Answer: 104%

Question: What about the ka (mouse IL-22) of the same molecule?
Answer: 166000 M·s

Question: And the kd (mouse IL-22)?
Answer: 0.000545 s⁻¹

Question: And the half-life in mice [1]?
Answer: about 18 hours

Question: And the ka (human IL-22)?
Answer: 1.87e+06 M·s

Question: What about the kd (human IL-22) of the same molecule?
Answer: 4.67e-05 s⁻¹

Reference: patent US11834472B2, “Anti-IL-22 antibodies, antibody fragments, their immunoconjugates and uses thereof” (BioAtla, Inc., priority 2018, dated 2023)
